In PMC7893820 one finds reduction of FRET efficiency with 2.5 μM deltarasin data, which are given here for one substance.

This experiment concerns the target mGFP-tagged N-RasG12V (UniProt P01111). The experiment is described as follows: FRET or BRET; FLIM-FRET in fixed HEK293 EBNA cells co-transfected with donor mGFP-NRasG12V and acceptor mCherry-PDE6δ plasmids (1:3); apparent FRET efficiency from the donor's lifetime; cells with scrambled siRNA in 0.1% DMSO (control), ICMT siRNA, or 2.5 μM deltarasin for 24 h. (BRET reads energy transfer from a luciferase to a nearby fluorophore.)

Chain of mCherry-tagged PDE6δ (O43924 whole entry, stated change not applied): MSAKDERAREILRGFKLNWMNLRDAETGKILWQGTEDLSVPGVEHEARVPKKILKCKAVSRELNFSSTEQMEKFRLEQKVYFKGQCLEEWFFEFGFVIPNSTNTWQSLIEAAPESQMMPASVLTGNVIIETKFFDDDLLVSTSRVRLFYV
Chain of mGFP-tagged N-RasG12V (P01111 whole entry G12V): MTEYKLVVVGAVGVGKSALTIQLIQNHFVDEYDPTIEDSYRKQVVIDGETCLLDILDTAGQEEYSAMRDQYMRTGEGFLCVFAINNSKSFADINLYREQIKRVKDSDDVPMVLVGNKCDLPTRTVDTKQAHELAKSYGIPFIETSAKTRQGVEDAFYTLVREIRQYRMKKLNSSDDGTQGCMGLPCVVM

“mCherry-tagged PDE6δ (from UniProt O43924 1-150) (natural protein)”: the reduction of FRET efficiency with 2.5 μM deltarasin stood at 50%.
